{"source": "patent US20180105585A1", "binders": {"B1": {"name": "Abet0007 scFv (scFv, part only; not given: Linker, tags and domain order, V domains shown, not shown: another chain or arm of the molecule; small tags and cut ends)", "VH": "EVQLLESGGGLVQPGGSLRLSCAASGFTFSVYTMWWVRQAPGKGLEWVSVIGSSGGTTVYADSVKGRFTISRDNSKNTLYLQMNSLRAEDTAVYYCAREGQQLVRPYYYYGMDVWGQGTLVTVSS", "VL": "QSVLTQPPSVSVSPGQTASITCSGHNLEDKFASWYQQKSGQSPVLVIYRDDKRPSGIPERFSASNSGHTATLTISGTQATDEADYYCQAQDSTTRVFGGGTKLTVL"}, "B2": {"name": "Abet0144 scFv (scFv, part only; not given: Linker, tags and domain order, V domains shown, not shown: another chain or arm of the molecule; small tags and cut ends)", "VH": "B1 VH with G100W, Q101M, Q102D, L103H, V104S", "VL": "B1 VL"}}, "key": {"[1]": {"biological_target": "Biotinylated human Amyloid beta 1-42 peptide (human)", "sequence (peptide, as listed by the source)": "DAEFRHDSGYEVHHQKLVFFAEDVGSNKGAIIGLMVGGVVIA", "assay": "HTRF epitope competition, purified scFv against Abet0042 IgG (competitor) for biotinylated human Amyloid beta 1-42"}, "[2]": {"biological_target": "Biotinylated human Amyloid beta 1-42 peptide (human)", "assay": "SPR (BIAcore T-100), biotinylated peptide on SA chip, scFv 12.5-400 nM, 1:1 Langmuir"}}, "note": "Positions count from the first letter of the chain named."}
{"binder": "B1", "values": [{"measurement": "IC50", "setting": "[1]", "value": 159, "unit": "nM"}]}
{"binder": "B2", "values": [{"measurement": "Kd", "setting": "[2]", "value": 33.2, "unit": "nM"}, {"measurement": "koff", "setting": "[2]", "value": 0.00666, "unit": "s⁻¹"}, {"measurement": "kon", "setting": "[2]", "value": 201000, "unit": "M⁻¹ s⁻¹"}, {"measurement": "IC50", "setting": "[1]", "value": 5.5, "unit": "nM"}]}
